Experimental data published in PMC4426631, “Insect antimicrobial peptides show potentiating functional interactions against Gram-negative bacteria” (Proceedings of the Royal Society B: Biological Sciences, 2015).
“Also recorded” adds a separate entry of the source. Ends that are not written are not given here. Peptide text beside a SMILES is read from it. * marks the point of attachment. 5FAM = O=C1OC2(c3ccc(O)cc3Oc3cc(O)ccc32)c2ccc(C(=O)*)cc21; Cf = 5(6)-carboxyfluorescein

What was measured:
E. coli DnaK [1] = biological target: T1, E. coli DnaK (Escherichia coli, UniProt P0A6Y8); experiment: FRET quenching peptide–protein interaction assay with DnaK–BHQ10; assay type: binding; details: 2 h, n = 3; for Kd not determinable: DnaK–BHQ10 quenching, peptide N-terminal carboxyfluorescein, C-terminal amide; for Kd not determinable / DnaK interaction / binding-curve shape, in words: pH 7.4
Description: DnaK, produced by Michael Zahn, was dialysed against modifying buffer (20 mmol l^−1 Na2HPO4, 20 mmol l^−1 KH2PO4, 5 mmol l^−1 MgCl2, 150 mmol l^−1 KCl, pH 7.4) as previously described and 2 mg ml^−1 were labelled with a 10-fold molar excess of BHQ10-NHS-ester, followed by supplementary dialysis to remove excess BHQ10.
As previously described, the fluorescein-modified peptides (50 μl, 1.3 nmol l^−1) and a serial dilution of DnaK–BHQ10 in modification buffer (50 μl, 0.8–13 000 nmol l^−1, 1 : 4 dilution series) were mixed in a black 384-well plate and incubated for 2 h. To calculate the quenching effect, a control was measured in five replicates consisting of 50 μl of peptide solution and 50 μl of modification buffer. The fluorescence intensity was recorded on a Paradigm fluorescence reader using a fluorescence intensity (fluo-rhod) detection cartridge (excitation wavelength = 485 ± 10 nm; emission wavelength = 535 ± 12.5 nm; integration time = 140 ms). The quenching effect was defined as the percentage of the fluorescence intensity of the control quenched after the addition of DnaK–BHQ10. Kd values were determined as described in the electronic supplementary material. […]
i) Peptide synthesis and modification.
The peptide sequences shown in Tabl es S1 an d S4 were selected according to their repo rted […]
(Carmel, USA), respectively. The m ature peptide sequences were based on data from closel y-related species and EST information derived from B. terrestris. Other peptides were s ynthesized b y PANATecs (Tübingen, Germ an y) . All peptides were l yoph ilized for storage, and were resuspended and diluted in double-distilled water, which was used as the zero peptide […]
metchnikowin 1 and 2 (Drosophila melanogaster) peptides were modified by the N -terminal addition of 5(6 )-carbox yfluorescein and C -terminal amidation for the quenching assa y. Bombus pascuorum h ymenoptaecin was modified b y the addition of an N-terminal p yroglutamate. The Black Hole Quencher 10 succinimidyl ester (BHQ10-NHS-ester, >75% purit y) was obtained from BioCat (H eidelber g, German y). […]

E. coli DnaK [2] = biological target: T1, E. coli DnaK; details: ref [51]; cited from earlier work
E. coli = system: E. coli; parameters: method as in PMID 6396089; details: following treatment with H. cecropia attacin; ref [15]; cited from earlier work
[3] = system: substrate-binding domain of DnaK; details: co-crystal structures; ref [58]; cited from earlier work
Source text: Normally, the characteristic sequence stretch YL/IPRP is positioned in the DnaK substrate-binding cleft, with a leucine or isoleucine residue occupying the central hydrophobic pocket. Additional hydrophobic binding sites preceding the central pocket are occupied by the conserved tyrosine residue and another, preferentially hydrophobic amino acid residue, defined as posi ...

[4] = fluorescein-modified peptide 1.3 nmol l−1, DnaK–BHQ10 0.8–13 000 nmol l−1

T1 sequence (P0A6Y8 whole entry): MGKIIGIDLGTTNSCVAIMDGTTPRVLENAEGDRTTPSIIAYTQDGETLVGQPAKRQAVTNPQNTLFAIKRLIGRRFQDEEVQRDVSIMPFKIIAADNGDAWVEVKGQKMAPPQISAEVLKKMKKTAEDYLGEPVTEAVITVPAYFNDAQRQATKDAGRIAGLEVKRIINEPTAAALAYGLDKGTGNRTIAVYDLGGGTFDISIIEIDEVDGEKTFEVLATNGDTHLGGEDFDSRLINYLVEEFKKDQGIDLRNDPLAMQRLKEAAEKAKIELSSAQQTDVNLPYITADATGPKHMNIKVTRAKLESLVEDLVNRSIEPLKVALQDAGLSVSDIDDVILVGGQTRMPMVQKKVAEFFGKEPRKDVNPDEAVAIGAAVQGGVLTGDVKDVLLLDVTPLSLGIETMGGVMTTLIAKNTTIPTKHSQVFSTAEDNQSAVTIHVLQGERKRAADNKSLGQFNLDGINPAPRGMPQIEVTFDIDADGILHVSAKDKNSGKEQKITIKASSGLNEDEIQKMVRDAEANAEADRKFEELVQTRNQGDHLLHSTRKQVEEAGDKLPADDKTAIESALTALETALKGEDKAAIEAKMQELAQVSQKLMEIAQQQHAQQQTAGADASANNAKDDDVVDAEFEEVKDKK

| Molecule | Kd not determinable (E. coli DnaK [1]) | DnaK interaction / binding-curve shape, in words (E. coli DnaK [1]; [4]) | further results |
| --- | --- | --- | --- |
| metalnikowin I: proline-rich AMP from Palomena prasina (Cf-VDKPDYRPRPRPPNM-NH2) | No Kd values could be determined; also recorded: not possible to assign a Kd value | do not interact significantly with bacterial DnaK | – |
| CC[C@H](C)[C@H](NC(=O)[C@H](CCCCN)NC(=O)[C@@H]1CCCN1C(=O)[C@H](CC(N)=O)NC(=O)[C@H](Cc1ccccc1)NC(=O)[C@@H]1CCCN1C(=O)CNC(=O)[C@H](Cc1c[nH]cn1)NC(=O)CNC(=O)[C@@H]1CCCN1C(=O)[C@H](Cc1ccccc1)NC(=O)[C@H](CO)NC(=O)[C@@H]1CCCN1C(=O)[C@H](Cc1ccccc1)NC(=O)[C@@H]1CCCN1C(=O)[C@H](CCCCN)NC(=O)[C@H](CO)NC(=O)[C@H](CCC(N)=O)NC(=O)CNC(=O)[C@@H]1CCCN1C(=O)[C@H](CCCNC(=N)N)NC(=O)[C@@H]1CCCN1C(=O)[C@@H]1CCCN1C(=O)[C@H](CC(N)=O)NC(=O)[C@H](Cc1ccc(O)cc1)NC(=O)[C@@H]1CCCN1C(=O)[C@@H](NC(=O)[C@H](Cc1ccccc1)NC(=O)c1ccc2c(c1)C(=O)OC21c2ccc(O)cc2Oc2cc(O)ccc21)C(C)C)C(=O)N[C@@H](CCC(N)=O)C(=O)N[C@@H](Cc1c[nH]c2ccccc12)C(=O)N1CCC[C@H]1C(=O)N[C@@H](Cc1ccc(O)cc1)C(=O)N1CCC[C@H]1C(=O)N[C@@H](CC(C)C)C(=O)N1CCC[C@H]1C(=O)N[C@@H](CC(N)=O)C(=O)N1CCC[C@H]1C(=O)NCC(=O)N[C@@H](Cc1c[nH]cn1)C(N)=O [B. pascuorum abaecin] (5FAM-FVPYNPPRPGQSKPFPSFPGHGPFNPKIQWPYPLPNPGH-NH2) | – | – | maximum quenching effect (binding efficacy) (E. coli DnaK [1]; fluorescein-modified peptide 1.3 nmol l−1, DnaK–BHQ10 0.8–13 000 nmol l−1, buffer pH 7.4, fluorescence): 74% |
| metchnikowin 1: proline-rich AMP from Drosophila melanogaster (Cf-HRHQGPIFDTRPSPFNPNQPRPGPIY-NH2) | No Kd values could be determined; also recorded: not possible to assign a Kd value | do not interact significantly with bacterial DnaK | – |
| Cf-PQPRPPHPRL-OH [apidaecin 1b (#9–18)] | – | small increase in control readouts with increasing probe concentration | DnaK interaction of control peptide, in words (E. coli DnaK [2]): interacts minimally with DnaK |
| metchnikowin 2: proline-rich AMP from Drosophila melanogaster (Cf-HRRQGPIFDTRPSPFNPNQPRPGPIY-NH2) | No Kd values could be determined; also recorded: not possible to assign a Kd value | do not interact significantly with bacterial DnaK | – |
| cecropin B: Hyalophora cecropia cecropin B (KWKVFKKIEKMGRNIRNGIVKAGPAIAVLGEAKAL; ends and bridges not checked; UniProt P01508 27-61, looked up) | – | – | sensitivity of E. coli towards cecropin B following attacin (E. coli): enhanced |
| drosocin: proline-rich DnaK-binding AMP (GKPRPYSPRPTSHPRPIRV; ends and bridges not checked; UniProt P36193 22-40, looked up) | – | – | DnaK binding orientation [3]: a proline residue near the C-terminus of drosocin occupies the central pocket |
| Pyrrhocoricin: proline-rich DnaK-binding AMP (VDKGSYLPRPTPPRPIYNRN; ends and bridges not checked; UniProt P37362 1-20, looked up) | – | – | DnaK binding orientation [3]: can bind to DnaK in both of the above orientations |
